Measurements from US20210388087A1 (Chugai, published 2021).
Substitutions are numbered along the chain they refer to. Numbers in names are those of the source. Values belong to the binder of their own block, whether it stands above or below them.

Biological target: T1, Human CD3eg linker (human)
T1 construct: Single-chain construct; also called recombinant human CD3
T1 chain: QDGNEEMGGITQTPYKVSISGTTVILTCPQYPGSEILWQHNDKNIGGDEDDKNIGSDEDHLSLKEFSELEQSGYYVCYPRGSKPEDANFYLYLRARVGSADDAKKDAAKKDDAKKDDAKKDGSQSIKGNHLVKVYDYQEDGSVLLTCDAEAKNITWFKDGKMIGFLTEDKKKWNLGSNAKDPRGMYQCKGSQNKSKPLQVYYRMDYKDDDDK
Test: SPR; fold vs parent H183/L072

B1: H183/L072 VL S26P (antibody, name in Kabat numbering, V domains shown)
VH: QVQLVESGGGLVQPGRSLRLSCAASGFTFSNAWMHWVRQAPGKGLEWVAQIKDKGNAYAAYYAPSVKGRFTISRDDSKNSIYLQMNSLKTEDTAVYYCHYVHYASASTVLPAFGVDAWGQGTTVTVSS
VL: DIVMTQSPLSLPVTPGEPASISCQAPQELVHMNRNTYLHWYQQKPGQAPRLLIYKVSNRFPGVPDRFSGSGSGTDFTLKISRVEAEDVGVYYCAQGTSVPFTFGQGTKLEIK
fold change of affinity: 0.2 fold

B2: H183/L072 VL S26Q (antibody, name in Kabat numbering, V domains shown)
VH: B1 VH
VL: B1 VL with P26Q
fold change of affinity: 0.8 fold

B4: H183/L072 VL S52F (antibody, name in Kabat numbering, V domains shown)
VH: B1 VH
VL: B1 VL with P26S, S57F
fold change of affinity: 1.6 fold

B6: H183/L072 VL S52I (antibody, name in Kabat numbering, V domains shown)
VH: B1 VH
VL: B1 VL with P26S, S57I
fold change of affinity: 1.5 fold

B10: H183/L072 VL S52H (antibody, name in Kabat numbering, V domains shown)
VH: B1 VH
VL: B1 VL with P26S, S57H
fold change of affinity: 1.7 fold

B11: H183/L072 VL S26W (antibody, name in Kabat numbering, V domains shown)
VH: B1 VH
VL: B1 VL with P26W
fold change of affinity: 0.3 fold

B12: H183/L072 VL S52D (antibody, name in Kabat numbering, V domains shown)
VH: B1 VH
VL: B1 VL with P26S, S57D
fold change of affinity: 1 fold

B15: H183/L072 VL S52E (antibody, name in Kabat numbering, V domains shown)
VH: B1 VH
VL: B1 VL with P26S, S57E
fold change of affinity: 1 fold

B16: H183/L072 VL S52G (antibody, name in Kabat numbering, V domains shown)
VH: B1 VH
VL: B1 VL with P26S, S57G
fold change of affinity: 1.4 fold

B17: H183/L072 VL S26R (antibody, name in Kabat numbering, V domains shown)
VH: B1 VH
VL: B1 VL with P26R
fold change of affinity: 0.5 fold

B22: H183/L072 VL S52K (antibody, name in Kabat numbering, V domains shown)
VH: B1 VH
VL: B1 VL with P26S, S57K
fold change of affinity: 1.9 fold

B24: H183/L072 VL S26Y (antibody, name in Kabat numbering, V domains shown)
VH: B1 VH
VL: B1 VL with P26Y
fold change of affinity: 0.4 fold

B29: H183/L072 VL S52A (antibody, name in Kabat numbering, V domains shown)
VH: B1 VH
VL: B1 VL with P26S, S57A
fold change of affinity: 1.2 fold

B31: H183/L072 VL S26T (antibody, name in Kabat numbering, V domains shown)
VH: B1 VH
VL: B1 VL with P26T
fold change of affinity: 1.4 fold

B32: H183/L072 VL S26V (antibody, name in Kabat numbering, V domains shown)
VH: B1 VH
VL: B1 VL with P26V
fold change of affinity: 0.6 fold

The next lines start with the values.

fold change of affinity: 1 fold
B3: H183/L072 VL S93F (antibody, name in Kabat numbering, V domains shown)
VH: B1 VH
VL: B1 VL with P26S, S98F

fold change of affinity: 1.5 fold
B5: H183/L072 VL S52N (antibody, name in Kabat numbering, V domains shown)
VH: B1 VH
VL: B1 VL with P26S, S57N

fold change of affinity: 1.1 fold
B7: H183/L072 VL S93A (antibody, name in Kabat numbering, V domains shown)
VH: B1 VH
VL: B1 VL with P26S, S98A

fold change of affinity: 1.6 fold
B8: H183/L072 VL S52V (antibody, name in Kabat numbering, V domains shown)
VH: B1 VH
VL: B1 VL with P26S, S57V

fold change of affinity: 0.9 fold
B9: H183/L072 VL S93L (antibody, name in Kabat numbering, V domains shown)
VH: B1 VH
VL: B1 VL with P26S, S98L

fold change of affinity: 0.8 fold
B13: H183/L072 VL S93I (antibody, name in Kabat numbering, V domains shown)
VH: B1 VH
VL: B1 VL with P26S, S98I

fold change of affinity: 1 fold
B14: H183/L072 VL S93M (antibody, name in Kabat numbering, V domains shown)
VH: B1 VH
VL: B1 VL with P26S, S98M

fold change of affinity: 1.8 fold
B18: H183/L072 VL S52R (antibody, name in Kabat numbering, V domains shown)
VH: B1 VH
VL: B1 VL with P26S, S57R

fold change of affinity: 1 fold
B19: H183/L072 VL S93E (antibody, name in Kabat numbering, V domains shown)
VH: B1 VH
VL: B1 VL with P26S, S98E

fold change of affinity: 0.8 fold
B20: H183/L072 VL S93G (antibody, name in Kabat numbering, V domains shown)
VH: B1 VH
VL: B1 VL with P26S, S98G

fold change of affinity: 1.4 fold
B21: H183/L072 VL S52M (antibody, name in Kabat numbering, V domains shown)
VH: B1 VH
VL: B1 VL with P26S, S57M

fold change of affinity: 1.4 fold
B23: H183/L072 VL S52Q (antibody, name in Kabat numbering, V domains shown)
VH: B1 VH
VL: B1 VL with P26S, S57Q

fold change of affinity: 1.6 fold
B25: H183/L072 VL S52L (antibody, name in Kabat numbering, V domains shown)
VH: B1 VH
VL: B1 VL with P26S, S57L

fold change of affinity: 1 fold
B26: H183/L072 VL S93K (antibody, name in Kabat numbering, V domains shown)
VH: B1 VH
VL: B1 VL with P26S, S98K

fold change of affinity: 0.7 fold
B27: H183/L072 VL S93D (antibody, name in Kabat numbering, V domains shown)
VH: B1 VH
VL: B1 VL with P26S, S98D

fold change of affinity: 1.4 fold
B28: H183/L072 VL S52W (antibody, name in Kabat numbering, V domains shown)
VH: B1 VH
VL: B1 VL with P26S, S57W

fold change of affinity: 0.9 fold
B30: H183/L072 VL S93H (antibody, name in Kabat numbering, V domains shown)
VH: B1 VH
VL: B1 VL with P26S, S98H

fold change of affinity: 1.3 fold
B33: H183/L072 VL S52T (antibody, name in Kabat numbering, V domains shown)
VH: B1 VH
VL: B1 VL with P26S, S57T
